From paper PMC8254039, “Oxalate decarboxylase uses electron hole hopping for catalysis” (The Journal of Biological Chemistry, 2021) come the findings set out here.

Substrate in the data set “purified protein”: O=C(O)C(=O)O
Description: purified protein. To be noted: pH 4.2, 25 °C.

Data set [1] deals with the molecule itself. Description: native gel or EMSA; native PAGE of the mutant proteins after purification, compared with WT (Fig. S3); self-assembly of the subunits. For orientation: A gel shift assay detects complexes by their altered migration in electrophoresis.
[2] abbreviates: 50 mM poly buffer, 500 mM NaCl, Triton X-100, o-phenylenediamine, 1.93 Mn per subunit.
Where [3] appears, read: same buffer, 0.58 Mn per subunit.
The mark [4] stands for this setting: same buffer, 1.89 Mn per subunit.
Where [5] appears, read: same buffer, 1.34 Mn per subunit.
The mark [6] stands for this setting: same buffer, 0.33 Mn per subunit.
The mark [7] stands for this setting: same buffer, 0.55 Mn per subunit.

B1: oxalate decarboxylase (OxDC) of Bacillus subtilis, wild type, His6-tagged (enzyme)
chain: MKKQNDIPQPIRGDKGATVKIPRNIERDRQNPDMLVPPETDHGTVSNMKFSFSDTHNRLEKGGYAREVTVRELPISENLASVNMRLKPGAIRELHWHKEAEWAYMIYGSARVTIVDEKGRSFIDDVGEGDLWYFPSGLPHSIQALEEGAEFLLVFDDGSFSENSTFQLTDWLAHTPKEVIAANFGVTKEEISNLPGKEKYIFENQLPGSLKDDIVEGPNGEVPYPFTYRLLEQEPIESEGGKVYIADSTNFKVSKTIASALVTVEPGAMRELHWHPNTHEWQYYISGKARMTVFASDGHARTFNYQAGDVGYVPFAMGHYVENIGDEPLVFLEIFKDDHYADVSLNQWLAMLPETFVQAHLDLGKDFTDVLSKEKHPVVKKKCSK
notes: oxalate decarboxylase (OxDC), Bacillus subtilis, YvrK gene; Vector printed as PET32A with the YvrK gene; also called WT OxDC; WT; source: E. coli (overexpressed), purified (nickel-NTA, HiTrap Q anion exchange, Superdex 200 gel filtration)
B1: in “purified protein” (setting [2]), the Michaelis-Menten constant (Km) (commonly the concentration of substrate that gives half-maximal velocity) was determined as 33.3 ± 0.4 mM and the catalytic constant (kcat) (usually the maximal rate divided by the concentration of active sites) worked out at 89.2 ± 1.4 s⁻¹. Besides, in data set [1], the binding result is “binds”.

B2: oxalate decarboxylase (OxDC) of Bacillus subtilis, W274Y mutant, His6-tagged (enzyme)
chain: MKKQNDIPQPIRGDKGATVKIPRNIERDRQNPDMLVPPETDHGTVSNMKFSFSDTHNRLEKGGYAREVTVRELPISENLASVNMRLKPGAIRELHWHKEAEWAYMIYGSARVTIVDEKGRSFIDDVGEGDLWYFPSGLPHSIQALEEGAEFLLVFDDGSFSENSTFQLTDWLAHTPKEVIAANFGVTKEEISNLPGKEKYIFENQLPGSLKDDIVEGPNGEVPYPFTYRLLEQEPIESEGGKVYIADSTNFKVSKTIASALVTVEPGAMRELHYHPNTHEWQYYISGKARMTVFASDGHARTFNYQAGDVGYVPFAMGHYVENIGDEPLVFLEIFKDDHYADVSLNQWLAMLPETFVQAHLDLGKDFTDVLSKEKHPVVKKKCSK
notes: oxalate decarboxylase (OxDC), Bacillus subtilis, YvrK gene, with W274Y; 385 residues per subunit; Said to assemble like the wild type on native PAGE; no crystal structure; source: E. coli (overexpressed), purified (nickel-NTA, HiTrap Q anion exchange, Superdex 200 gel filtration)
For B2, the binding result in data set [1] is on record as “binds”.

B3: oxalate decarboxylase (OxDC) of Bacillus subtilis, W274F mutant, His6-tagged (enzyme)
chain: MKKQNDIPQPIRGDKGATVKIPRNIERDRQNPDMLVPPETDHGTVSNMKFSFSDTHNRLEKGGYAREVTVRELPISENLASVNMRLKPGAIRELHWHKEAEWAYMIYGSARVTIVDEKGRSFIDDVGEGDLWYFPSGLPHSIQALEEGAEFLLVFDDGSFSENSTFQLTDWLAHTPKEVIAANFGVTKEEISNLPGKEKYIFENQLPGSLKDDIVEGPNGEVPYPFTYRLLEQEPIESEGGKVYIADSTNFKVSKTIASALVTVEPGAMRELHFHPNTHEWQYYISGKARMTVFASDGHARTFNYQAGDVGYVPFAMGHYVENIGDEPLVFLEIFKDDHYADVSLNQWLAMLPETFVQAHLDLGKDFTDVLSKEKHPVVKKKCSK
notes: oxalate decarboxylase (OxDC), Bacillus subtilis, YvrK gene, with W274F; 385 residues per subunit; Said to assemble like the wild type on native PAGE; no crystal structure; source: E. coli (overexpressed), purified (nickel-NTA, HiTrap Q anion exchange, Superdex 200 gel filtration)
For B3, in the data set “purified protein” (setting [3]), the Km amounted to 6.7 ± 0.3 mM and the kcat amounted to 1.10 ± 0.03 s⁻¹. For the same protein, in data set [1], the binding result was “binds”.

B4: oxalate decarboxylase (OxDC) of Bacillus subtilis, W96Y mutant, His6-tagged (enzyme)
chain: MKKQNDIPQPIRGDKGATVKIPRNIERDRQNPDMLVPPETDHGTVSNMKFSFSDTHNRLEKGGYAREVTVRELPISENLASVNMRLKPGAIRELHYHKEAEWAYMIYGSARVTIVDEKGRSFIDDVGEGDLWYFPSGLPHSIQALEEGAEFLLVFDDGSFSENSTFQLTDWLAHTPKEVIAANFGVTKEEISNLPGKEKYIFENQLPGSLKDDIVEGPNGEVPYPFTYRLLEQEPIESEGGKVYIADSTNFKVSKTIASALVTVEPGAMRELHWHPNTHEWQYYISGKARMTVFASDGHARTFNYQAGDVGYVPFAMGHYVENIGDEPLVFLEIFKDDHYADVSLNQWLAMLPETFVQAHLDLGKDFTDVLSKEKHPVVKKKCSK
notes: oxalate decarboxylase (OxDC), Bacillus subtilis, YvrK gene, with W96Y; 385 residues per subunit; Quaternary assembly in the crystal agrees with that of the hexameric wild type (5VG3); source: E. coli (overexpressed), purified (nickel-NTA, HiTrap Q anion exchange, Superdex 200 gel filtration)
With B4, the binding result in data set [1] is given as “binds”.

B5: oxalate decarboxylase (OxDC) of Bacillus subtilis, W96F/W274F double mutant, His6-tagged (enzyme)
chain: MKKQNDIPQPIRGDKGATVKIPRNIERDRQNPDMLVPPETDHGTVSNMKFSFSDTHNRLEKGGYAREVTVRELPISENLASVNMRLKPGAIRELHFHKEAEWAYMIYGSARVTIVDEKGRSFIDDVGEGDLWYFPSGLPHSIQALEEGAEFLLVFDDGSFSENSTFQLTDWLAHTPKEVIAANFGVTKEEISNLPGKEKYIFENQLPGSLKDDIVEGPNGEVPYPFTYRLLEQEPIESEGGKVYIADSTNFKVSKTIASALVTVEPGAMRELHFHPNTHEWQYYISGKARMTVFASDGHARTFNYQAGDVGYVPFAMGHYVENIGDEPLVFLEIFKDDHYADVSLNQWLAMLPETFVQAHLDLGKDFTDVLSKEKHPVVKKKCSK
notes: oxalate decarboxylase (OxDC), Bacillus subtilis, YvrK gene, with W96F and W274F; 385 residues per subunit; Said to assemble like the wild type on native PAGE; no crystal structure; source: E. coli (overexpressed), purified (nickel-NTA, HiTrap Q anion exchange, Superdex 200 gel filtration)
For the protein B5, the binding result in data set [1] is “binds”.

B6: oxalate decarboxylase (OxDC) (Bacillus subtilis subsp. subtilis str. 168; W274Y) (protein)
chain: MKKQNDIPQPIRGDKGATVKIPRNIERDRQNPDMLVPPETDHGTVSNMKFSFSDTHNRLEKGGYAREVTVRELPISENLASVNMRLKPGAIRELHWHKEAEWAYMIYGSARVTIVDEKGRSFIDDVGEGDLWYFPSGLPHSIQALEEGAEFLLVFDDGSFSENSTFQLTDWLAHTPKEVIAANFGVTKEEISNLPGKEKYIFENQLPGSLKDDIVEGPNGEVPYPFTYRLLEQEPIESEGGKVYIADSTNFKVSKTIASALVTVEPGAMRELHYHPNTHEWQYYISGKARMTVFASDGHARTFNYQAGDVGYVPFAMGHYVENIGDEPLVFLEIFKDDHYADVSLNQWLAMLPETFVQAHLDLGKDFTDVLSKEKHPVVKKKCSK
As to B6, in the data set “purified protein” (setting [4]), the Michaelis constant (Km) is listed as 10.3 ± 3.1 mM and the turnover number (kcat) turned out to be 23.9 ± 2.8 s⁻¹.

B7: oxalate decarboxylase (OxDC) (Bacillus subtilis subsp. subtilis str. 168; W96Y) (protein)
chain: MKKQNDIPQPIRGDKGATVKIPRNIERDRQNPDMLVPPETDHGTVSNMKFSFSDTHNRLEKGGYAREVTVRELPISENLASVNMRLKPGAIRELHYHKEAEWAYMIYGSARVTIVDEKGRSFIDDVGEGDLWYFPSGLPHSIQALEEGAEFLLVFDDGSFSENSTFQLTDWLAHTPKEVIAANFGVTKEEISNLPGKEKYIFENQLPGSLKDDIVEGPNGEVPYPFTYRLLEQEPIESEGGKVYIADSTNFKVSKTIASALVTVEPGAMRELHWHPNTHEWQYYISGKARMTVFASDGHARTFNYQAGDVGYVPFAMGHYVENIGDEPLVFLEIFKDDHYADVSLNQWLAMLPETFVQAHLDLGKDFTDVLSKEKHPVVKKKCSK
Consider B7, for which, in the data set “purified protein” (setting [5]), the Michaelis-Menten constant (Km) is 3.7 ± 0.9 mM and the catalytic constant (kcat) worked out at 5.3 ± 0.9 s⁻¹.

B8: oxalate decarboxylase (OxDC) (Bacillus subtilis subsp. subtilis str. 168; W274Y/W96Y) (protein)
chain: MKKQNDIPQPIRGDKGATVKIPRNIERDRQNPDMLVPPETDHGTVSNMKFSFSDTHNRLEKGGYAREVTVRELPISENLASVNMRLKPGAIRELHYHKEAEWAYMIYGSARVTIVDEKGRSFIDDVGEGDLWYFPSGLPHSIQALEEGAEFLLVFDDGSFSENSTFQLTDWLAHTPKEVIAANFGVTKEEISNLPGKEKYIFENQLPGSLKDDIVEGPNGEVPYPFTYRLLEQEPIESEGGKVYIADSTNFKVSKTIASALVTVEPGAMRELHYHPNTHEWQYYISGKARMTVFASDGHARTFNYQAGDVGYVPFAMGHYVENIGDEPLVFLEIFKDDHYADVSLNQWLAMLPETFVQAHLDLGKDFTDVLSKEKHPVVKKKCSK
In the case of B8, in the data set “purified protein” (setting [6]), the Michaelis constant (Km) stood at 5.6 ± 0.5 mM and the turnover number (kcat) turned out to be 0.20 ± 0.01 s⁻¹.

B9: oxalate decarboxylase (OxDC) of Bacillus subtilis, W96F mutant, His6-tagged (enzyme)
chain: MKKQNDIPQPIRGDKGATVKIPRNIERDRQNPDMLVPPETDHGTVSNMKFSFSDTHNRLEKGGYAREVTVRELPISENLASVNMRLKPGAIRELHFHKEAEWAYMIYGSARVTIVDEKGRSFIDDVGEGDLWYFPSGLPHSIQALEEGAEFLLVFDDGSFSENSTFQLTDWLAHTPKEVIAANFGVTKEEISNLPGKEKYIFENQLPGSLKDDIVEGPNGEVPYPFTYRLLEQEPIESEGGKVYIADSTNFKVSKTIASALVTVEPGAMRELHWHPNTHEWQYYISGKARMTVFASDGHARTFNYQAGDVGYVPFAMGHYVENIGDEPLVFLEIFKDDHYADVSLNQWLAMLPETFVQAHLDLGKDFTDVLSKEKHPVVKKKCSK
notes: oxalate decarboxylase (OxDC), Bacillus subtilis, YvrK gene, with W96F; 385 residues per subunit; Quaternary assembly in the crystal agrees with that of the hexameric wild type (5VG3); source: E. coli (overexpressed), purified (nickel-NTA, HiTrap Q anion exchange, Superdex 200 gel filtration)
In the case of B9, in “purified protein” (setting [7]), the Michaelis constant (Km) is on record as 16.0 ± 1.5 mM and the kcat stood at 1.00 ± 0.03 s⁻¹. In addition, the binding result in data set [1] is reported as “binds”.

B10: oxalate decarboxylase (OxDC) of Bacillus subtilis, W96Y/W274Y double mutant, His6-tagged (enzyme)
chain: MKKQNDIPQPIRGDKGATVKIPRNIERDRQNPDMLVPPETDHGTVSNMKFSFSDTHNRLEKGGYAREVTVRELPISENLASVNMRLKPGAIRELHYHKEAEWAYMIYGSARVTIVDEKGRSFIDDVGEGDLWYFPSGLPHSIQALEEGAEFLLVFDDGSFSENSTFQLTDWLAHTPKEVIAANFGVTKEEISNLPGKEKYIFENQLPGSLKDDIVEGPNGEVPYPFTYRLLEQEPIESEGGKVYIADSTNFKVSKTIASALVTVEPGAMRELHYHPNTHEWQYYISGKARMTVFASDGHARTFNYQAGDVGYVPFAMGHYVENIGDEPLVFLEIFKDDHYADVSLNQWLAMLPETFVQAHLDLGKDFTDVLSKEKHPVVKKKCSK
notes: oxalate decarboxylase (OxDC), Bacillus subtilis, YvrK gene, with W96Y and W274Y; 385 residues per subunit; Said to assemble like the wild type on native PAGE; no crystal structure; source: E. coli (overexpressed), purified (nickel-NTA, HiTrap Q anion exchange, Superdex 200 gel filtration)
As for B10, in data set [1], the binding result is listed as “binds”.
